Reference: the nanobody polyreactivity screen of Harvey et al. (2022)

Assay: yeast display, Sf9 membrane polyspecificity reagent, FACS + sequencing; frameworks hold sequencing errors
Summary of the method: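 Genes from sorted yeast were amplified by colony PCR, read by MiSeq 2 × 250 sequencing and filtered on CDR length. These cells carried a synthetic nanobody library in Saccharomyces cerevisiae BJ5465 and were sorted by FACS into low and high (top ~1%) gates on anti-HA and streptavidin fluorescence. Polyreactivity is labelled according to the gate of origin.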

Row | Sequence | polyreactivity (PSR sort gate)
1 | QVQLVESGGGLVQAGGSLRISCAASGFIFYSYPMGWYRQAPGKERELVAAISTSGGSTYYADSVKGRFTISRDNAKNTVYLQMNSLKPEDTAVYYCAVGRKFGRYRVPFVVPYEYWGHGTQVTVSS | high polyreactivity
2 | QVQLVESGGGLVQAGGSLRISCAASGFILGYKDMGWYRQAPGKERELVAAISSSGGSTYYADSVKGRFTISRDNSKNTVYLQMNILKPEDTAVYYCGLPYQTSYGEYDYWGQGTQVTVSS | low polyreactivity
3 | QVQLVESGGGLVQAGGSLRISCAASGFTFHTYAMGWYRQAPGKERELVAAIDSSGGITYYADSVKGRFTISRDNAKNTVYLQMTSLKPEDTAVYYCAAVFLLFGFEWSYDYWGQGTQVTVSS | low polyreactivity
4 | QVQLVESGGGLVQAGGSLRISCAASGFTFNANAMAWYRQAPGKERELVAAISLSGGRTYYADSVKRRFTISRDNAKNTVYLQMNSMKQVDTAVYYCAASPDGSFRRFSRVVSGDYWGQGTQVTVSS | high polyreactivity
5 | QVQLVESGGGLVQAGGSLRISCAASGFTFPSNAMGWYRQAPGKERELVAAITGGGRTYYADSVKGRFTISRDNAKNTVFFQMNSLKPEDTAVYYCNRPTRVHLTHYDYCGQGTQVTVSS | high polyreactivity
6 | QVQLVESGGGLVQAGGSLRISCAASGFTFRSYAMGWYRQAPGKERELVAAISWRGGRTYYADSVKGRFTISRDNAKNTVYLQMNSLKPLDTAVYYCATDWYWGSYAPYTTRAHFDYWGQGTQVTVSS | high polyreactivity
7 | QVQLVESGGGLVQAGGSLRISCAASGFTIAYYAMGWYRQAPGKERQKVASISSGDSTHYADSVKGRFTISRDNAKNTVYLQMNSLKPEDTAVYYCNADTRTFYYAAKTGFTFLYGYWGQGTQVTVSS | high polyreactivity
8 | QVQLVESGGGLVQAGGSLRISCAASGGIFIRNAMGWYRQAPGKERELFATISNAGSTYADSVKGRFTISRDNAKNTVYLQMNSLKPEDTAVYYCNRVDWTYPVSQGLQEYDYRGQGTQVTVSS | low polyreactivity
9 | QVQLVESGGGLVQAGGSLRISCAASGHIFFYYTMGWYRPAPGKERELVAGITIGGSTNYADSVKGRFTISRDNAKNTVSLQMNSLKPEDTAVYYCNVVKYVYIYSYWEYYYWGQGTQVTVSS | low polyreactivity
10 | QVQLVESGGGLVQAGGSLRISCAASGIIFALYAMGWYRQAPGKERELVAAISWSGDRTYYADSVKGRFTISRDNAKNTVYLQMNSLKPEDTAVYYCAADDYTADAVQRFYYWGQGTQVTVSS | low polyreactivity
11 | QVQLVESGGGLVQAGGSLRISCAASGIIFDRYVMGWYRQAPGKERELVATITRSVNTDYADSVKGRFTISRDNAKNTVYLQMNSLKPEDTAVYYCAARKYYYFPVAYDYWGQGTQVTVSS | high polyreactivity
12 | QVQLVESGGGLVQAGGSLRISCAASGIIFGEYAMGWYRQAPGKERELVAAISQSGGTYYADSVKGRFTISRDNAKNTVYLQMNSLKPEDTAVYYCNADYWAYISRVRYDYWGQGTQVTVSS | low polyreactivity
13 | QVQLVESGGGLVQAGGSLRISCAASGITFEGYAMGWYRQAPGKESEFVAAITSTGTSTRYADSVKGRFTISRDNAKNTVYLQMNSLKPEDTAVYYCAAVARRLNTGKYYYWGQGTQVTVSS | high polyreactivity
14 | QVQLVESGGGLVQAGGSLRISCAASGITFGRYTMGWYRQAPGKERELVAAITNGDITYYADSVKGRFTISRDNAKNTVYLQMNSLKPDDTAVYYCAADRYFWYDYWGQATQVTVSS | high polyreactivity
15 | QVQLVESGGGLVQAGGSLRISCAASGITFNKNDMGWYRQAPGKERELVAAISGRGGSTYYADSVKGRVTISRDNAKNTVYLQMNSLKPEDTAVYYCAADNFKGDSYGTGNYDYWGQGTQVTVSS | high polyreactivity
16 | QVQLVESGGGLVQAGGSLRISCAASGITFRYYTMGWYRQAPGKERELVAAINYRGGRTYYADSVKGRFTISRDNAKNTVYLQMNSLKPEDTAVYYCNTARVSRLGWSTTSDSWGQGTQVTVSS | high polyreactivity
17 | QVQLVESGGGLVQAGGSLRISCAASGLIFAIYAMGWYRQAPGKERELVAAIRWSGASPYADSVKGRFTISRDNAKKTVYLQMNSLKPEDSAVYYCAADDLLDYDYWGQGTQVTVSA | low polyreactivity
18 | QVQLVESGGGLVQAGGSLRISCAASGRICWNYALGWYRQAPGKEMELVASISYRGGSTYYADSVKGRVTISRDYAKNTVYLQMNSLKPEDTAVYYCAARSRQARRTDYGYWGQGTQVTVSS | high polyreactivity
19 | QVQLVESGGGLVQAGGSLRISCAASGRIFATNAMGWYRQAPGKERELVATITRSAGRTYYADSVKGRFTISRDTAKNTVYLQMNSLKPEDNAVYYFAASYGDTEPGYREYDYWGQGTQVTVSS | low polyreactivity
20 | QVQLVESGGGLVQAGGSLRISCAASGRIFGKNALGRYRQAPGKERDLVAAITGSGGSTYYADSVKGRFTISRDNAKNTVYLQMNSLKPEDTAVYYCATAYAVYHVEYGYWGQGTQVTVSS | low polyreactivity
21 | QVQLVESGGGLVQAGGSLRISCAASGRIFHANAMGWYRQAPGKERELLAGISRNGGRTYYADSVKGRFTISRDNAKYTVYLQMNSLKPEDTAVYYCAADGLTGSKYRATGYYWGQGTQVTVSS | high polyreactivity
22 | QVQLVESGGGLVQAGGSLRISCAASGRIFYFNGMGWYRQAPGKERELVAAITSGGSTYYADSVKGRFTISRDNAKNTVYLQMNSLKPEDTAVYYCAAQNAWWSNGRSYDYWGQGTQVTVSS | low polyreactivity

Row | Sequence | polyreactivity (PSR sort gate)
23 | QVQLVESGGGLVQAGGSLRISCAASGRIFYYNAIGWYRQAPGKERELVATITGSGGSSYYADSVKGRFTISRDNAKNTVYLQMKTLKPEDSAVYYCIASRWYYDFYNLDYWGQGTQVTVSS | low polyreactivity
24 | QVQLVESGGGLVQAGGSLRISCAASGRTCNHYTMGWYRPAPGKERELVAAITSGGSTYYADSVKGRFTISRDNAKNTVYLQMNSLKPEDTAVYYCARVRPLYHYSRYDYWGQGTQVTVSS | high polyreactivity
25 | QVQLVESGGGLVQAGGSLRISCAASGRTFDINAMGWYSPAPGKERELVAAISSRGGTTFYADSVKGRFTISRDNAKNTVYLKMNSLKPEDSAVYYCAAVTSYYYTEEDYWGQGTQVTVSS | low polyreactivity
26 | QVQLVESGGGLVQAGGSLRISCAASGRTFDPYAMGWYRQAPGKERELVAAITSGGSTYYADTVKGRFTISRDNAKNTVYLQMNSLTPEDTAVYYCAKPYYRLEDYWGQGTQVTVSS | low polyreactivity
27 | QVQLVESGGGLVQAGGSLRISCAASGRTFFGNAMGWYRQAPGKERELGASISTRGGSTYYADSVKGRFTISRDNAKNTVYLQINSLKPADTAVYDCAAPSQSRGYYYWGQGTQVNVSS | high polyreactivity
28 | QVQLVESGGGLVQAGGSLRISCAASGRTFFHYAMGWYRQAPGKERELVAGITSGGRTKYADSVKGRFTISRDNAKKTVYLQKNSMKPEDTAVYVCAASYIVWLTRGSPRKLFDYWGQGSQVTVSS | high polyreactivity
29 | QVQLVESGGGLVQAGGSLRISCAASGRTFGANAMGWYRQAPGKERELVASISRSGGTTYYADSVKGRFTISRDNAKNTVYLQMNSLKPEDTAVYYCAAQYVRYGHYYWGQGTQVTVSS | high polyreactivity
30 | QVQLVESGGGLVQAGGSLRISCAASGRTFHYNVMGWYTQAPGKERELVAAITNTGGSTYYADSVKGRFTISRDNAKNTVYLQMNSLKPEDTAVYYCAAVIWGRRYGAYPYEYWGQGTQVTVSS | low polyreactivity
31 | QVQLVESGGGLVQAGGSLRISCAASGRTFKRYAMGWYRQAPGKERELVAAITGTGAITYYADSVKGRFTISRDNAKNTVYLQMNSLKPEDTAVYYCNARYWYRYGGYKPVGGYYWGQGTQVTVSS | high polyreactivity
32 | QVQLVESGGGLVQAGGSLRISCAASGRTFRYYGMGWYRQPPAKERVVAAITWSGDTTYYADSVKGRFTISRDNAKNTVYLQMNSLKPEDTAVYYFAAQSWHRYYYWGQGTQVTVSS | high polyreactivity
33 | QVQLVESGGGLVQAGGSLRISCAASGRTFWKYVRGWYRQAPGKERELVAVISRPAGSTYYADSVKGRFTISRDNAKNTVYLQMNSLKPEDTAVYYCAKRPKNKPVLGDYDHWGQGTQVTVSS | low polyreactivity
34 | QVQLVESGGGLVQAGGSLRISCAASGRTFYNNAMGWYRQAPGTERELVATIHNRGGTTYYADSVKGRFTISRYNAKNTVYLLMNSLKPEDTAVYYCAKSAQRYSYRYYYWGQGTQVTVSS | high polyreactivity
35 | QVQLVESGGGLVQAGGSLRISCAASGRTLGGYTMGWYRQAPGKERELVAAITGSGSNTYYADSVKGRFTISRDNAKNTVYLQMNSLKPEDTAVYYCAAPYSYRTWYPYGYWGQGTQVTLSS | high polyreactivity
36 | QVQLVESGGGLVQAGGSLRISCAASGSIFGGYSMGWYRQAPGKERELVAAIRYSGVSTYYADSVKGRFTISRDNAKYTVYFQMNSLKAEDTAVYYCNAVPFYYHYDYWGQGTQVTVSS | high polyreactivity
37 | QVQLVESGGGLVQAGGSLRISCAASGSIFGYNTMGWYRQAPGKERELVAAIRGSDSSTYYADSVKGRFTISRDNAKNTVYLQMNSVIPEDTAVYYCAAKYYWGQGTQVTVSS | high polyreactivity
38 | QVQLVESGGGLVQAGGSLRISCAASGSIFLKYAMGWYRQAPGKERELVAAITWTDDRTYYADSVKGRFTISRDNAKNTVYLQMNSLKPEDTAVYYCNTATSKSSYRHYDYWGQGTQVTVSS | high polyreactivity
39 | QVQLVESGGGLVQAGGSLRISCAASGSILTHYAMGWYRQAPGKERELVADINSGGGTSYADSVKGRFTISRDNAKNTVYLQMNSLKPEDTAVYYCAAAWWPYRYPTYYSQFDYWGQGTQVTVSS | low polyreactivity
40 | QVQLVESGGGLVQAGGSLRISCAASGSISVRNVMGWYRHAPGKERELVATIRRTGGSTSYADSVKGRFTISRDNAKNTVYLQMNSLKPEDPAVYYCAAVGYTTYRRYDYWGQGTQVTVSS | low polyreactivity
41 | QVQLVESGGGLVQAGGSLRISCAASGSNFAYYAMGWYRQAPGKERELVAAITRGGRTYYADSVKGRFTISRDNAKNTVYLQMNSLKPEDTAVYYCNARNYTWYSSRFMRFDYWGLGTQVTVSS | high polyreactivity
42 | QVQLVESGGGLVQAGGSLRISCAASGSSYGTYAMGWYRKAPGKERELVAAINFSGTSTYYADSVKGRFTISRDKAKHTVYLQMNRLKPEETADYYCAARFYWKYGRYDNWGQGTQVTVSS | high polyreactivity
43 | QVQLVESGGGLVQAGGSLRISCAASGSTFDPNVMGWYRQAPGKERELVAVITTTGVSTYYADSVKGRFTISRDNAKNTVYLQMNSLKPEETAVYYCNAKWYWYLTRDDFRYRYTYDYWGQGTQVTVSS | low polyreactivity
